Experimental data published in PMC12171016, “hnRNP A1 induces aberrant CFTR exon 9 splicing via a newly discovered ESS element”.

Biological target: hnRNP A1 tandem RRMs (UP1-like) (UniProt P09651 1-196)
Assay: fluorescence anisotropy; 35 C; NMR buffer: sodium phosphate pH 6.5 (50 mM for tandem RRMs, 25 mM for single RRMs), 1 mM BME, 50 uM EDTA, no added salt stated; ITC 25 C, NMR 298 K (10% D2O), FA 35 C
Settings: protein: recombinant; tags: 2xHis6-lipoyl tag removed by TEV; label: 3' fluorescein

Sequence of hnRNP A1 tandem RRMs (UP1-like) (P09651 1-196): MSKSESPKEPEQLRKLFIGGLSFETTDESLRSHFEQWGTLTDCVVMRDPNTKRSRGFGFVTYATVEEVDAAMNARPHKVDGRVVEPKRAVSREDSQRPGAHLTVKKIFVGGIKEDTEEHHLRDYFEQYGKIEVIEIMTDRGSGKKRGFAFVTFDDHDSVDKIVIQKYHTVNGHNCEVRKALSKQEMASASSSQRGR

Binder | Kd [nM]
CAGGGAUUUGGGGAC (ssRNA) [CFTR exon 9 ESS 15-mer ssRNA wt] | 99
CAGGGAUUUCGCGUA (ssRNA) [CFTR exon 9 ESS 15-mer ssRNA mut4] | 117
